Results: doi:10.1101/2025.03.30.646023 (bioRxiv, 2025)
Residue numbers refer to the chain shown, from its start.

Experiments:
[1] = molecular target: T1, SARS-CoV-2 spike S2 stem helix peptide (amino acid 1143 - 1162) (SARS-CoV-2, UniProt P0DTC2, biotin, amino-terminus); test: SPR
T1 chain: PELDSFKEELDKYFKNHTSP

[2] = molecular target: T2, SARS-CoV-2 spike S2 [aa 1149-1167] peptide (SARS-CoV-2, UniProt P0DTC2); test: crystal structure
T2 chain: KEELDKYFKNHTSPDVDLG

[3] = molecular target: LC556375.1 RBD (Sarbecovirus Rc-o319 (Rhinolophus …, strain)); test: flow cytometry on cells

B1: GB-0669 Fab (Fab, V domains shown)
VH: EVQLVESGAEVKKPGESLKISCKGSGYTFTRYWIGWVRQMPGKGLEWMGIIYPGDSDVRYSPSFQGHVTISADKSISTAYLQWNSLKASDTAMYYCARLPQYCSKGVCYRWFDPWGQGTLVTVSS
VL: EIVLTQSPSSVSASVGDRVTITCRASQGISSWLAWYQQKPGKAPKLLIYAASSLQSGVPSRFSGSGSGTDFTLTISSLQPEDFATYYCQQGHSFPYTFGQGTNLEIK
B1: binds [1]; binds [2].

B2: CV3-25 Fab (Fab, V domains shown)
VH: B1 VH with V58T, K105N, Y109Q
VL: B1 VL with H92N
B2: binds [1].

B3: PRO-37587 (antibody, V domains shown)
VH: QVQLVQSGAEVKKPGSSVKVSCKASGDTSDTYTISWVRQAPGQGLEWMGRIILLSGYANYAQKIQGRVTITADKSTSTAYMELTSLRSDDTAVYYCARGFNGDYYGWGDDDAFDFWGQGTLVTVYS
VL: QTVLTQPPSVSGAPGQRVTISCTGSSSNIGAGYRVHWYQQLPGTAPKLLIAGRSNRPSGVPDRFSGSKSGTSASLAITGLQAEDEADYYCQSYDSSLFDPHWVFGGGTKLTVL
B3: no binding (tested: 1 nM) [3].
